The record followed here is paper PMC5772613, “Phosphorylation induced cochaperone unfolding promotes kinase recruitment and client class-specific Hsp90 phosphorylation” (Nature Communications, 2018).

To fix the notation:
B1: Full-length human Cdc37 [human] / Catalytic domain of bRaf [not stated] (parent complex)
chain 1: MVDYSVWDHIEVSDDEDETHPNIDTASLFRWRHQARVERMEQFQKEKEELDRGCRECKRKVAECQRKLKELEVAEGGKAELERLQAEAQQLRKEERSWEQKLEEMRKKEKSMPWNVDTLSKDGFSKSMVNTKPEKTEEDSEEVREQKHKTFVEKYEKQIKHFGMLRRWDDSQKYLSDNVHLVCEETANYLVIWCIDLEVEEKCALMEQVAHQTIVMQFILELAKSLKVDPRACFRQFFTKIKTADRQYMEGFNDELEAFKERVRGRAKLRIEKAMKEYEEEERKKRLGPGGLDPVEVYESLPEELQKCFDVKDVQMLQDAISKMDPTDAKYHMQRCIDSGLWVPNSKASEAKEGEEAGPGDPLLEAVPKTGDEKDVSV
chain 2: ITVGQRIGSGSFGTVYKGKWHGDVAVKMLNVTAPTPQQLQAFKNEVGVLRKTRHVNILLFMGYSTKPQLAIVTQWCEGSSLYHHLHIIETKFEMIKLIDIARQTAQGMDYLHAKSIIHRDLKSNNIFLHEDLTVKIGDFGLATVKSRWSGSHQFEQLSGSILWMAPEVIRMQDKNPYSFQSDVYAFGIVLYELMTGQLPYSNINNRDQIIFMVGRGYLSPDLSKVRSNCPKAMKRLMAECLKKKRDERPLFPQILASIELL

This test covers variants of B1. Put plainly: ITC; read off a plot.
With chain 1 MVDYSVWDHIEVSDDEDETHPNIDTASLFRWRHQARVERMEQFQKEKEELDRGCRECKRKVAECQRKLKELEVAEGGKAELERLQAEAQQLRKEERSWEQKLEEMRKKEKSMPWNVDTLSKDGFSKSMVNTKPEKTEEDSEEVREQKHKTFVEKYEKQIKHFGMLRRWDDSQKYLSDNVHLVCEETANYLVIWCIDLEVEEKCALMEQVAHQTIVMQFILELAKSLKVDPRACFRQFFTKIKTADRQYMEGFNDELEAFKERVRGRAKLRIEKAMKEYEEEERKKRLGPGGLDPVEVEESLPEELQKCFDVKDVQMLQDAISKMDPTDAKYHMQRCIDSGLWVPNSKASEAKEGEEAGPGDPLLEAVPKTGDEKDVSV [chain 1 Y298E], the dissociation constant (Kd) – broadly, the constant that tells how readily two partners part at equilibrium – was roughly 1900 nM. To chain 1 MVDESVWDHIEVSDDEDETHPNIDTASLFRWRHQARVERMEQFQKEKEELDRGCRECKRKVAECQRKLKELEVAEGGKAELERLQAEAQQLRKEERSWEQKLEEMRKKEKSMPWNVDTLSKDGFSKSMVNTKPEKTEEDSEEVREQKHKTFVEKYEKQIKHFGMLRRWDDSQKYLSDNVHLVCEETANYLVIWCIDLEVEEKCALMEQVAHQTIVMQFILELAKSLKVDPRACFRQFFTKIKTADRQYMEGFNDELEAFKERVRGRAKLRIEKAMKEYEEEERKKRLGPGGLDPVEVEESLPEELQKCFDVKDVQMLQDAISKMDPTDAKYHMQRCIDSGLWVPNSKASEAKEGEEAGPGDPLLEAVPKTGDEKDVSV [chain 1 Y4E, chain 1 Y298E] belongs roughly 2100 nM; to chain 1 MVDESVWDHIEVSDDEDETHPNIDTASLFRWRHQARVERMEQFQKEKEELDRGCRECKRKVAECQRKLKELEVAEGGKAELERLQAEAQQLRKEERSWEQKLEEMRKKEKSMPWNVDTLSKDGFSKSMVNTKPEKTEEDSEEVREQKHKTFVEKYEKQIKHFGMLRRWDDSQKYLSDNVHLVCEETANYLVIWCIDLEVEEKCALMEQVAHQTIVMQFILELAKSLKVDPRACFRQFFTKIKTADRQYMEGFNDELEAFKERVRGRAKLRIEKAMKEYEEEERKKRLGPGGLDPVEVYESLPEELQKCFDVKDVQMLQDAISKMDPTDAKYHMQRCIDSGLWVPNSKASEAKEGEEAGPGDPLLEAVPKTGDEKDVSV [chain 1 Y4E], roughly 1000 nM.
